Data published in patent US9958461B2, “Detection of protein to protein interactions” (THE GOVERNING COUNCIL OF THE UNIVERSITY OF TORONTO, priority 2013, dated 2018).

B1: CAV2 (protein, UniProt P51636 1-162, looked up)
Caveolin-2: MGLETEKADVQLFMDDDSYSHHSGLEYADPEKFADSDQDRDPHRLNSHLKLGFEDVIAEPVTTHSFDKVWICSHALFEISKYVMYKFLTVFLAIPLAFIAGILFATLSCLHIWILMPFVKTCLMVLPSVQTIWKSVTDVIIAPLCTSVGRCFSSVSLQLSQD
B2: PRKCZ (protein, UniProt Q05513 1-592, looked up)
Protein kinase C zeta type: MPSRTGPKMEGSGGRVRLKAHYGGDIFITSVDAATTFEELCEEVRDMCRLHQQHPLTLKWVDSEGDPCTVSSQMELEEAFRLARQCRDEGLIIHVFPSTPEQPGLPCPGEDKSIYRRGARRWRKLYRANGHLFQAKRFNRRAYCGQCSERIWGLARQGYRCINCKLLVHKRCHGLVPLTCRKHMDSVMPSQEPPVDDKNEDADLPSEETDGIAYISSSRKHDSIKDDSEDLKPVIDGMDGIKISQGLGLQDFDLIRVIGRGSYAKVLLVRLKKNDQIYAMKVVKKELVHDDEDIDWVQTEKHVFEQASSNPFLVGLHSCFQTTSRLFLVIEYVNGGDLMFHMQRQRKLPEEHARFYAAEICIALNFLHERGIIYRDLKLDNVLLDADGHIKLTDYGMCKEGLGPGDTTSTFCGTPNYIAPEILRGEEYGFSVDWWALGVLMFEMMAGRSPFDIITDNPDMNTEDYLFQVILEKPIRIPRFLSVKASHVLKGFLNKDPKERLGCRPQTGFSDIKSHAFFRSIDWDLLEKKQALPPFQPQITDDYGLDNFDTQFTSEPVQLTPDDEDAIKRIDQSEFEGFEYINPLLLSTEESV
B3: PTPN12 (protein, UniProt Q05209 1-780, looked up)
Tyrosine-protein phosphatase …: MEQVEILRKFIQRVQAMKSPDHNGEDNFARDFMRLRRLSTKYRTEKIYPTATGEKEENVKKNRYKDILPFDHSRVKLTLKTPSQDSDYINANFIKGVYGPKAYVATQGPLANTVIDFWRMIWEYNVVIIVMACREFEMGRKKCERYWPLYGEDPITFAPFKISCEDEQARTDYFIRTLLLEFQNESRRLYQFHYVNWPDHDVPSSFDSILDMISLMRKYQEHEDVPICIHCSAGCGRTGAICAIDYTWNLLKAGKIPEEFNVFNLIQEMRTQRHSAVQTKEQYELVHRAIAQLFEKQLQLYEIHGAQKIADGVNEINTENMVSSIEPEKQDSPPPKPPRTRSCLVEGDAKEEILQPPEPHPVPPILTPSPPSAFPTVTTVWQDNDRYHPKPVLHMVSSEQHSADLNRNYSKSTELPGKNESTIEQIDKKLERNLSFEIKKVPLQEGPKSFDGNTLLNRGHAIKIKSASPCIADKISKPQELSSDLNVGDTSQNSCVDCSVTQSNKVSVTPPEESQNSDTPPRPDRLPLDEKGHVTWSFHGPENAIPIPDLSEGNSSDINYQTRKTVSLTPSPTTQVETPDLVDHDNTSPLFRTPLSFTNPLHSDDSDSDERNSDGAVTQNKTNISTASATVSAATSTESISTRKVLPMSIARHNIAGTTHSGAEKDVDVSEDSPPPLPERTPESFVLASEHNTPVRSEWSELQSQERSEQKKSEGLITSENEKCDHPAGGIHYEMCIECPPTFSDKREQISENPTEATDIGFGNRCGKPKGPRDPPSEWT
B4: PLCG2 (protein, UniProt P16885 1-1265, looked up)
1-phosphatidylinositol …: MSTTVNVDSLAEYEKSQIKRALELGTVMTVFSFRKSTPERRTVQVIMETRQVAWSKTADKIEGFLDIMEIKEIRPGKNSKDFERAKAVRQKEDCCFTILYGTQFVLSTLSLAADSKEDAVNWLSGLKILHQEAMNASTPTIIESWLRKQIYSVDQTRRNSISLRELKTILPLINFKVSSAKFLKDKFVEIGAHKDELSFEQFHLFYKKLMFEQQKSILDEFKKDSSVFILGNTDRPDASAVYLHDFQRFLIHEQQEHWAQDLNKVRERMTKFIDDTMRETAEPFLFVDEFLTYLFSRENSIWDEKYDAVDMQDMNNPLSHYWISSSHNTYLTGDQLRSESSPEAYIRCLRMGCRCIELDCWDGPDGKPVIYHGWTRTTKIKFDDVVQAIKDHAFVTSSFPVILSIEEHCSVEQQRHMAKAFKEVFGDLLLTKPTEASADQLPSPSQLREKIIIKHKKLGPRGDVDVNMEDKKDEHKQQGELYMWDSIDQKWTRHYCAIADAKLSFSDDIEQTMEEEVPQDIPPTELHFGEKWFHKKVEKRTSAEKLLQEYCMETGGKDGTFLVRESETFPNDYTLSFWRSGRVQHCRIRSTMEGGTLKYYLTDNLTFSSIYALIQHYRETHLRCAEFELRLTDPVPNPNPHESKPWYYDSLSRGEAEDMLMRIPRDGAFLIRKREGSDSYAITFRARGKVKHCRINRDGRHFVLGTSAYFESLVELVSYYEKHSLYRKMRLRYPVTPELLERYNMERDINSLYDVSRMYVDPSEINPSMPQRTVKALYDYKAKRSDELSFCRGALIHNVSKEPGGWWKGDYGTRIQQYFPSNYVEDISTADFEELEKQIIEDNPLGSLCRGILDLNTYNVVKAPQGKNQKSFVFILEPKQQGDPPVEFATDRVEELFEWFQSIREITWKIDTKENNMKYWEKNQSIAIELSDLVVYCKPTSKTKDNLENPDFREIRSFVETKADSIIRQKPVDLLKYNQKGLTRVYPKGQRVDSSNYDPFRLWLCGSQMVALNFQTADKYMQMNHALFSLNGRTGYVLQPESMRTEKYDPMPPESQRKILMTLTVKVLGARHLPKLGRSIACPFVEVEICGAEYDNNKFKTTVVNDNGLSPIWAPTQEKVTFEIYDPNLAFLRFVVYEEDMFSDPNFLAHATYPIKAVKSGFRSVPLKNGYSEDIELASLLVFCEMRPVLESEEELYSSCRQLRRRQEELNNQLFLYDTHQNLRNANRDALVKEFSVNENQLQLYQEKCNKRLREKRVSNSKFYS
B5: SLA (protein, UniProt Q13239 2-276, looked up)
Src-like-adapter: GNSMKSTPAPAERPLPNPEGLDSDFLAVLSDYPSPDISPPIFRRGEKLRVISDEGGWWKAISLSTGRESYIPGICVARVYHGWLFEGLGRDKAEELLQLPDTKVGSFMIRESETKKGFYSLSVRHRQVKHYRIFRLPNNWYYISPRLTFQCLEDLVNHYSEVADGLCCVLTTPCLTQSTAAPAVRASSSPVTLRQKTVDWRRVSRLQEDPEGTENPLGVDESLFSYGLRESIASYLSLTSEDNTSFDRKKKSISLMYGGSKRKSSFFSSPPYFED
B6: STAP2 (protein, UniProt Q9UGK3 1-403, looked up)
Signal-transducing adaptor …: MASALRPPRVPKPKGVLPSHYYESFLEKKGPCDRDYKKFWAGLQGLTIYFYNSNRDFQHVEKLNLGAFEKLTDEIPWGSSRDPGTHFSLILRDQEIKFKVETLECREMWKGFILTVVELRVPTDLTLLPGHLYMMSEVLAKEEARRALETPSCFLKVSRLEAQLLLERYPECGNLLLRPSGDGADGVSVTTRQMHNGTHVVRHYKVKREGPKYVIDVEQPFSCTSLDAVVNYFVSHTKKALVPFLLDEDYEKVLGYVEADKENGENVWVAPSAPGPGPAPCTGGPKPLSPASSQDKLPPLPPLPNQEENYVTPIGDGPAVDYENQDVASSSWPVILKPKKLPKPPAKLPKPPVGPKPEPKVFNGGLGRKLPVSSAQPLFPTAGLADMTAELQKKLEKRRALEH
B7: PTPN22 (protein, UniProt Q9Y2R2 1-807, looked up)
Tyrosine-protein phosphatase …: MDQREILQKFLDEAQSKKITKEEFANEFLKLKRQSTKYKADKTYPTTVAEKPKNIKKNRYKDILPYDYSRVELSLITSDEDSSYINANFIKGVYGPKAYIATQGPLSTTLLDFWRMIWEYSVLIIVMACMEYEMGKKKCERYWAEPGEMQLEFGPFSVSCEAEKRKSDYIIRTLKVKFNSETRTIYQFHYKNWPDHDVPSSIDPILELIWDVRCYQEDDSVPICIHCSAGCGRTGVICAIDYTWMLLKDGIIPENFSVFSLIREMRTQRPSLVQTQEQYELVYNAVLELFKRQMDVIRDKHSGTESQAKHCIPEKNHTLQADSYSPNLPKSTTKAAKMMNQQRTKMEIKESSSFDFRTSEISAKEELVLHPAKSSTSFDFLELNYSFDKNADTTMKWQTKAFPIVGEPLQKHQSLDLGSLLFEGCSNSKPVNAAGRYFNSKVPITRTKSTPFELIQQRETKEVDSKENFSYLESQPHDSCFVEMQAQKVMHVSSAELNYSLPYDSKHQIRNASNVKHHDSSALGVYSYIPLVENPYFSSWPPSGTSSKMSLDLPEKQDGTVFPSSLLPTSSTSLFSYYNSHDSLSLNSPTNISSLLNQESAVLATAPRIDDEIPPPLPVRTPESFIVVEEAGEFSPNVPKSLSSAVKVKIGTSLEWGGTSEPKKFDDSVILRPSKSVKLRSPKSELHQDRSSPPPPLPERTLESFFLADEDCMQAQSIETYSTSYPDTMENSTSSKQTLKTPGKSFTRSKSLKILRNMKKSICNSCPPNKPAESVQSNNSSSFLNFGFANRFSKPKGPRNPPPTWNI
B8: ITK (protein, UniProt Q08881 1-620, looked up)
Tyrosine-protein kinase …: MNNFILLEEQLIKKSQQKRRTSPSNFKVRFFVLTKASLAYFEDRHGKKRTLKGSIELSRIKCVEIVKSDISIPCHYKYPFQVVHDNYLLYVFAPDRESRQRWVLALKEETRNNNSLVPKYHPNFWMDGKWRCCSQLEKLATGCAQYDPTKNASKKPLPPTPEDNRRPLWEPEETVVIALYDYQTNDPQELALRRNEEYCLLDSSEIHWWRVQDRNGHEGYVPSSYLVEKSPNNLETYEWYNKSISRDKAEKLLLDTGKEGAFMVRDSRTAGTYTVSVFTKAVVSENNPCIKHYHIKETNDNPKRYYVAEKYVFDSIPLLINYHQHNGGGLVTRLRYPVCFGRQKAPVTAGLRYGKWVIDPSELTFVQEIGSGQFGLVHLGYWLNKDKVAIKTIREGAMSEEDFIEEAEVMMKLSHPKLVQLYGVCLEQAPICLVFEFMEHGCLSDYLRTQRGLFAAETLLGMCLDVCEGMAYLEEACVIHRDLAARNCLVGENQVIKVSDFGMTRFVLDDQYTSSTGTKFPVKWASPEVFSFSRYSSKSDVWSFGVLMWEVFSEGKIPYENRSNSEVVEDISTGFRLYKPRLASTHVYQIMNHCWKERPEDRPAFSRLLRQLAEIAESGL

Experiments:
EGFR-L858R = biological target: T1, EGFR-L858R (Homo sapiens, UniProt P00533, L858R); assay: MaMTH EGFR-interactor screen, lentiviral preys against EGFR-L858R bait (interaction score); assay type: cell-based; conditions: MaMTH interaction score of prey with EGFR-L858R bait
T1 construct: with the advantage of testing full-length integral membrane proteins; (GGGGS)2 linker-Cub (human ubiquitin aa 35-76)-GAL4(1-147)-mNFkB(364-550) (C); expressed in transfected cells
Summary of the method: (§1)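 5×GAL4UAS-luciferase HEK293T reporter cells were lentivirally infected with preys (MOI ~0.3-0.4) and puromycin-selected ≥48 h. They were then transfected in triplicate with the EGFR bait, and luciferase was read 24 h later. Score is fold-change over averaged negative-control preys; >1 denotes interaction.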

EGFR-Wt [1] = assay: MaMTH EGFR-interactor screen, lentiviral preys against EGFR-wildtype bait (interaction score); assay type: cell-based, human; conditions: ratio of EGFR-Wt mean to EGFR-L858R mean interaction score
Summary of the method: as §1

EGFR-Wt [2] = biological target: T2, EGFR-Wt (Homo sapiens, UniProt P00533); assay: as above; assay type: cell-based; conditions: MaMTH interaction score of prey with EGFR-Wt bait, mean
T2 construct: with the advantage of testing full-length integral membrane proteins; (GGGGS)2 linker-Cub (human ubiquitin aa 35-76)-GAL4(1-147)-mNFkB(364-550) (C); expressed in transfected cells
Summary of the method: as §1

Molecule | EGFR-L858R mean (EGFR-L858R) | Wt/L858R (EGFR-Wt [1]) | EGFR-Wt mean (EGFR-Wt [2])
B1 | 6.58 | 0.39 | 2.57
B2 | 0.89 | 2.79 | 2.49
B3 | 1.20 | 2.20 | 2.64
B4 | 2.43 | 1.64 | 3.99
B5 | 1.16 | 2.40 | 2.78
B6 | 1.49 | 1.86 | 2.76
B7 | 0.36 | 8.23 | 2.99
B8 | 0.94 | 2.35 | 2.21
